Experimental data reported in paper PMC5214978 (Structure (London, England : 1993), 2016).
Several values for one entry are separate records, joined by “and”; a condition that tells them apart may be missing. Equal values may be shown once.

Molecular target: the molecule itself
Assay: cross-linking

B1: Anion exchanger 1 (AE1) (natural protein, human (endogenous in erythrocytes), UniProt P02730 1-911, looked up)
chain: MEELQDDYEDMMEENLEQEEYEDPDIPESQMEEPAAHDTEATATDYHTTSHPGTHKVYVELQELVMDEKNQELRWMEAARWVQLEENLGENGAWGRPHLSHLTFWSLLELRRVFTKGTVLLDLQETSLAGVANQLLDRFIFEDQIRPQDREELLRALLLKHSHAGELEALGGVKPAVLTRSGDPSQPLLPQHSSLETQLFCEQGDGGTEGHSPSGILEKIPPDSEATLVLVGRADFLEQPVLGFVRLQEAAELEAVELPVPIRFLFVLLGPEAPHIDYTQLGRAAATLMSERVFRIDAYMAQSRGELLHSLEGFLDCSLVLPPTDAPSEQALLSLVPVQRELLRRRYQSSPAKPDSSFYKGLDLNGGPDDPLQQTGQLFGGLVRDIRRRYPYYLSDITDAFSPQVLAAVIFIYFAALSPAITFGGLLGEKTRNQMGVSELLISTAVQGILFALLGAQPLLVVGFSGPLLVFEEAFFSFCETNGLEYIVGRVWIGFWLILLVVLVVAFEGSFLVRFISRYTQEIFSFLISLIFIYETFSKLIKIFQDHPLQKTYNYNVLMVPKPQGPLPNTALLSLVLMAGTFFFAMMLRKFKNSSYFPGKLRRVIGDFGVPISILIMVLVDFFIQDTYTQKLSVPDGFKVSNSSARGWVIHPLGLRSEFPIWMMFASALPALLVFILIFLESQITTLIVSKPERKMVKGSGFHLDLLLVVGMGGVAALFGMPWLSATTVRSVTHANALTVMGKASTPGAAAQIQEVKEQRISGLLVAVLVGLSILMEPILSRIPLAVLFGIFLYMGVTSLSGIQLFDRILLLFKPPKYHPDVPYVKRVKTWRMHLFTGIQIICLAVLWVVKSTPASLALPFVLILTVPLRRVLLPLIFRNVELQCLDADDAKATFDEEEGRDEYDEVAMPV
modifications: extensive and variable glycosylation (sites not given)
Question: B1 was tested. Which “stoichiometry N” value did it give?
Answer: 2 and 4
